Laboratory results from patent US8398967B2, “Particle formulations for use in pharmaceutical compositions” (Intarcia Therapeutics, Inc., priority 2002, dated 2013).

Tests used:
[1] = Lipid moisture level; type: physicochemical; conditions: after vacuum at room temperature for 48 hours
Procedure: The moisture level of the lipid, e.g., DOPC, […], or DMPC, is measured after vacuum at room temperature for 48 hours. Lipid vehicles with lower moisture level can be included in viscous liquid compositions.

[2] = ω-Interferon solubility in non-aqueous liquid solvents; type: physicochemical
Text: Thirteen non-aqueous liquid solvent candidates were identified to develop a solution formulation or a suspension formulation based on solubility of ω-interferon. The solvents at the top, e.g., lauryl lactate, are potential suspension solvents. The character of the solvents changes to potential solution solvents in combination with ω-interferon, e.g., glycerol formal, benzyl benzoate, DMSO, or glycerin.

[3] = solvent 1:1 benzyl benzoate:benzyl alcohol, expected conc 10.00 mg/ml
[4] = solvent NMP, expected conc 25.00 mg/ml
[5] = solvent PEG 400, expected conc 25.00 mg/ml
[6] = solvent benzyl alcohol, expected conc 10.00 mg/ml
[7] = solvent ethanol, expected conc 25.00 mg/ml
[8] = solvent ethyl hexyl lactate, expected conc 10.00 mg/ml

For `CCCCCCCCCCCCCC(=O)OC[C@H](COP(=O)([O-])OCC[N+](C)(C)C)OC(=O)CCCCCCCCCCCCC` [DMPC, dimyristoylphosphatidylcholine], the “Avg. Moisture” value [1] was 0.6%.
For `CCCCCCCC/C=C\CCCCCCCC(=O)OC[C@H](COP(=O)([O-])OCC[N+](C)(C)C)OC(=O)CCCCCCC/C=C\CCCCCCCC` [DOPC, 1,2-Dioleoyl-sn-glycero-3-phosphatidylcholine], the “Avg. Moisture” value [1] was 0.6 ± 0.2%.
For ω-interferon, the solubility ([2]; in the solvents that were combined with DOPC to form suspensions) was “less than 0.1 mg/mL”, the “Concentration by SEC” value [2, 3] was 0 ng/mL and the “Concentration by UV” value [2, 3] was less than 100 µg/mL. For the same compound, the “Concentration by rp-HPLC” value [2, 3] was 0.00, the “Concentration by SEC” value [2, 4] was 0 ng/mL and the “Concentration by UV” value [2, 4] was less than 100 µg/mL. For the same compound, the “Concentration by rp-HPLC” value [2, 4] was 0.00, the “Concentration by SEC” value [2, 5] was 0 ng/mL and the “Concentration by UV” value [2, 5] was less than 100 µg/mL. The “Concentration by rp-HPLC” value [2, 5] was 0.00, the “Concentration by SEC” value [2, 6] was 0 ng/mL and the “Concentration by UV” value [2, 6] was 140 µg/mL. For the same compound, the “Concentration by rp-HPLC” value [2, 6] was 0.00, the “Concentration by SEC” value [2, 7] was 0 ng/mL and the “Concentration by UV” value [2, 7] was less than 100 µg/mL. The “Concentration by rp-HPLC” value [2, 7] was 0.00, the “Concentration by SEC” value [2, 8] was 0 ng/mL and the “Concentration by UV” value [2, 8] was 370 µg/mL. The “Concentration by rp-HPLC” value [2, 8] was 0.00, the “Concentration by UV” value ([2]; solvent lauryl alcohol, expected conc 10.00 mg/ml) was less than 100 µg/mL and the “Concentration by UV” value ([2]; solvent lauryl lactate, expected conc 10.00 mg/ml) was less than 100 µg/mL.
